What is called Kd is the free concentration of one partner at which half of the binding sites on the other are occupied at equilibrium, for simple one-to-one binding. One may read the koff as the rate constant with which the complex falls apart. Higher therefore signals a short-lived complex. Usually kon stands for a measure of how fast the partners come together.

This assay has as its target T1, Phl p 5.0101 (timothy grass).
T1 construct: Phl p 5.0101, major group 5 pollen allergen of timothy grass; The SPR methods say only 'Phl p 5 antigen'; also called major timothy grass pollen allergen Phl p 5; group 5 allergen; source: bought: Biomay, Vienna, Austria
T1 chain: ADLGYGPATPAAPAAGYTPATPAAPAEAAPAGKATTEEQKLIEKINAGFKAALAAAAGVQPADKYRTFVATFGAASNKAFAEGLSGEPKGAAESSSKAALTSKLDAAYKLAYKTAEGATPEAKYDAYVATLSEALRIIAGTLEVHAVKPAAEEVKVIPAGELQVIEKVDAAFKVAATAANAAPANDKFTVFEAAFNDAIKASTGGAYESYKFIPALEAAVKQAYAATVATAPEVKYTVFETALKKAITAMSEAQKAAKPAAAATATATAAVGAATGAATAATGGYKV
As to the kind of experiment: SPR; Biacore 1K+; purified IgG captured (about 100 RU) on anti-human IgG (Fc) on a CM5 chip; Phl p 5 injected at 1.875-60 nM, 25 uL/min, 120 s, 1360 s dissociation; PBS with 0.02% Tween 20; 1:1 Langmuir model. As to conditions: both partners purified.

B1: 212579 E38HS, G62HS (antibody, V domains shown)
VH: EVQLVESGGGLVQPGGSLRLSCAASGFTFSSYSMTWVRQAPGKGLEWISYISSSSSTIYYADSVKGRFTISRDNAKNSLYLQMNSLRAEDTAVYYCARDLRWGVMDNYYYHGMDVWGQGTTVTVSS
VL: EIVLTQSPGTLSLSPGERATLSCRASQSISSSYLTWYQQKPGQAPRLLIYGASSRATGIPDRFSGSGSGTDFTLTISRLEPEDFAVYYCQQYVSSLITFGQGTRLEIK
notes: numbers count on: IMGT numbering; as the VL of m2; IgG1, kappa; also called E38HS G62HS substituted antibody; source: Expi293F, transfected, purified (Protein A magnetic beads)
The molecule B1 had a Kd of 19.6 nM, a koff of 0.00262 s⁻¹ and a kon of 130000 M⁻¹ s⁻¹.

B2: inferred unmutated common ancestor (UCA) of antibody 212579 (antibody, V domains shown)
VH: EVQLVESGGGLVQPGGSLRLSCAASGFTFSSYEMNWVRQAPGKGLEWVSYISSSGSTIYYADSVKGRFTISRDNAKNSLYLQMNSLRAEDTAVYYCARDLRWGVMDNYYYYGMDVWGQGTTVTVSS
VL: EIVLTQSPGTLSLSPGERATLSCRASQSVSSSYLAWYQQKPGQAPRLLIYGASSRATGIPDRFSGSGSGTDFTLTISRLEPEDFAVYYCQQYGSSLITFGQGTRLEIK
notes: equals the inferred UCA heavy chain variable domain (GenBank PV255645, PV255646 for the two chains); numbers count on: IMGT numbering; equals the inferred UCA light chain variable domain (GenBank PV255645, PV255646 for the two chains); IgG1, kappa; also called inferred UCA; source: Expi293F, transfected, purified (Protein A magnetic beads)
The molecule B2 gave a Kd of 8.5 nM, a koff of 0.00051 s⁻¹ and a kon of 60000 M⁻¹ s⁻¹.

The values above are taken from paper PMC12259648 (Frontiers in Immunology, 2025).
